One molecule from publication doi:10.1101/2020.12.04.411884 (bioRxiv, 2020) can be followed below.

The experiment deals with proteasome αΔ12-subunit (Thermoplasma acidophilum 20S proteasome α-subunit, first 12 residues removed) (Thermoplasma acidophilum, UniProt P25156 13-233). Put plainly: […].
Sequence of proteasome αΔ12-subunit (Thermoplasma acidophilum 20S proteasome α-subunit, first 12 residues removed) (P25156 13-233, stated change not applied): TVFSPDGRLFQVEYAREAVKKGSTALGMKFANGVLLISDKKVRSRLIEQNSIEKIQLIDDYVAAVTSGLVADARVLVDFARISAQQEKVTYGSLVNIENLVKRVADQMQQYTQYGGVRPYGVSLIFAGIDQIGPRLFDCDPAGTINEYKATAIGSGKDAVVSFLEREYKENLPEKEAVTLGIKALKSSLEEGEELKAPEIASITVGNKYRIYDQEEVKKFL

B1: proteasome β-subunit (Thermoplasma acidophilum 20S proteasome) (natural protein)
chain: TTTVGITLKDAVIMATERRVTMENFIMHKNGKKLFQIDTYTGMTIAGLVGDAQVLVRYMKAELELYRLQRRVNMPIEAVATLLSNMLNQVKYMPYMVQLLVGGIDTAPHVFSIDAAGGSVEDIYASTGSGSPFVYGVLESQYSEKMTVDEGVDLVIRAISAAKQRDSASGGMIDVAVITRKDGYVQLPTDQIESRIRKLGLIL
Take B1: the binding result was “binds”.
